Measured values reported in patent publication US20230272055A1 (Incyte, published 2023).
Where a chain is given by its changes, count along the chain named.

T1: human Type 1 mutCALR on Ba/F3 cells expressing MPL and Type 1 mutCALR (human)
T1 chain: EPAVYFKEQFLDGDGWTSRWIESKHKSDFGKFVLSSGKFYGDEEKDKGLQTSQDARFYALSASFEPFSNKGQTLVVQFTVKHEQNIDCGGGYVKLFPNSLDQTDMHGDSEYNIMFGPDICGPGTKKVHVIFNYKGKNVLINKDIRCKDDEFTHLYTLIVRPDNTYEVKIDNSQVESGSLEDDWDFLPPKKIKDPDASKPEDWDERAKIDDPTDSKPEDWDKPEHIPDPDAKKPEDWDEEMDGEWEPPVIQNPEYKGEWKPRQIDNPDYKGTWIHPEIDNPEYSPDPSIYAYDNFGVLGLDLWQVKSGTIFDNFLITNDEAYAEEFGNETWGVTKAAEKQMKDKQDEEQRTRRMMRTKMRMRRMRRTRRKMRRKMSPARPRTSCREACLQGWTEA

T2: human mutCALR on BaF3 cells stably expressing human MPL and human mutCALR (MPL-mutCALR cells) (human)
T2 construct: also called mutant calreticulin
T2 chain: T1 chain

B1: anti-mutCALR antibody clone 9 (antibody, human IgG1, lambda, V domains shown)
VH: EVQLVQSGAEVKKPGASVKVSCKVSGYTLTELSMQWVRQAPGKGLEWMGGFDPDDGETMYAEKFQGRLTVTEDTSTDTVYMELRSLTSEDTALYFCATSPGYDFFDYWGQGTLVTVSS
VL: SYVLTQPPSVSVAPGQTARIPCGGNNIGSKSVHWYQQKPGQAPVLVVYDDRDRPSGIPERFSGSNSGNTATLTINRVEAGDEADYYCQVWDSSNDLLIFGGGTKLTVLG
notes: human IgG1
B2: anti-mutCALR antibody clone 28 (antibody, human IgG1, lambda, V domains shown)
VH: B1 VH
VL: B1 VL with V3E, P21T, R51S, N75S, S92A, S93D, N94S, L96Q
notes: human IgG1
B3: anti-mutCALR antibody clone 25 (antibody, human IgG1, lambda, V domains shown)
VH: B1 VH
VL: B1 VL with V3E, S11A, P21T, S29R, S31A, R51S
notes: human IgG1
B4: anti-mutCALR antibody clone 17 (antibody, human IgG1, lambda)
heavy: not shown
light: SYVLTQPPSVSVAPGQTARITCGGSDIGDEIVHWYQQKPGQAPVLVVYDDSDRPSGIPERFSGSNSGNTATLTISRAQAGDEADYYCQVWDSSSDHLIFGGGTKLTVLGQPKAAPSVTLFPPSSEELQANKATLVCLISDFYPGAVTVAWKADSSPVKAGVETTTPSKQSNNKYAASSYLSLTPEQWKSHRSYSCQVTHEGSTVEKTVAPTECS
notes: human IgG1
B5: anti-mutCALR antibody clone 15 (antibody, human IgG1, lambda)
heavy: not shown
light: SYELTQPPSVSVAPGKTARITCGGDNIGSKSVHWYQQKPGQAPVLVVYDDSDRPSGIPERFSGSNSGNTATLTINRVEAGDEADYYCQVWDSSNDLLIFGGGTKLTVLGQPKAAPSVTLFPPSSEELQANKATLVCLISDFYPGAVTVAWKADSSPVKAGVETTTPSKQSNNKYAASSYLSLTPEQWKSHRSYSCQVTHEGSTVEKTVAPTECS
notes: human IgG1
B6: anti-mutCALR antibody clone 26 (antibody, human IgG1, lambda, V domains shown)
VH: B1 VH
VL: B1 VL with P21T, R51S, N75S, N94I, L96H, L105V
notes: human IgG1
B7: anti-mutCALR antibody clone 18 (antibody, human IgG1, lambda, V domains shown)
VH: B1 VH
VL: B1 VL with Q16K, P21T, R51S, S55L
notes: human IgG1
B8: anti-mutCALR antibody clone 13 (antibody, human IgG1, lambda, V domains shown)
VH: B1 VH with E1Q
VL: not shown
notes: human IgG1
B9: anti-mutCALR antibody clone 24 (antibody, human IgG1, lambda, V domains shown)
VH: B1 VH with F64L
VL: B1 VL with Q16K, P21T, R51S
notes: human IgG1
B10: anti-mutCALR antibody clone 29 (antibody, human IgG1, lambda, V domains shown)
VH: B1 VH
VL: B1 VL with Q16K, P21T, R51S, N75S, N94S, T103A
notes: human IgG1
B11: anti-mutCALR antibody clone 19 (antibody, human IgG1, lambda, V domains shown)
VH: B1 VH with S75P
VL: B1 VL with P8L, P14L, P21T, N25S, S29D, K30I, S31R, R51S
B12: anti-mutCALR antibody clone 16 (antibody, human IgG1, lambda, V domains shown)
VH: B1 VH
VL: B1 VL with Q16K, P21T, I27T, R51S
notes: human IgG1
B13: anti-mutCALR antibody clone 12 (antibody, human IgG1, lambda, V domains shown)
VH: B1 VH with D55G
VL: B1 VL with I20V, P21S, H33N, Q36R, V47I, R51S
notes: human IgG1
B14: anti-mutCALR antibody clone 23 (antibody, human IgG1, lambda, V domains shown)
VH: B1 VH
VL: B1 VL with P21T, S29I, R51S
notes: human IgG1
B15: anti-mutCALR antibody clone 27 (antibody, human IgG1, lambda, V domains shown)
VH: B1 VH
VL: B1 VL with P21T, S29I
notes: human IgG1
B16: anti-mutCALR antibody clone 22 (antibody, human IgG1, lambda, V domains shown)
VH: B1 VH
VL: B1 VL with Q16K, P21T, S31N, R51S
notes: human IgG1
B17: anti-mutCALR antibody clone 21 (antibody, human IgG1, lambda, V domains shown)
VH: B1 VH with K23E
VL: B1 VL with I20V, P21S, H33N, Q36R, V47I, R51S, N75S
notes: human IgG1
B18: anti-mutCALR antibody clone 10 (antibody, human IgG1, lambda, V domains shown)
VH: B1 VH
VL: B1 VL with V3E, K30E, S31G, R51S, N75S
notes: human IgG1
B19: anti-mutCALR antibody clone 20 (antibody, human IgG1, lambda, V domains shown)
VH: B1 VH
VL: B1 VL with Q16K, P21T, S31G, R51S
notes: human IgG1
B20: anti-mutCALR antibody clone 30 (antibody, human IgG1, lambda, V domains shown)
VH: B1 VH
VL: B1 VL with Q16K, R19T, P21T, S29T, R51S
notes: human IgG1
B21: anti-mutCALR antibody clone 37 (antibody, human IgG1, lambda, V domains shown)
VH: QVQLVQSGAEVKKPGATVKISCKVSGYSFTDYFIHWVQQAPGKGLAWVGLVDPEDGETIYAEKFQGRVTITADTSTDTAYMELSSLRSEDTAVYYCATPGGILTDPDAFDIWGQGTMVTVSS
VL: QSALTQPASVSGSPGQSITISCTGTSSDVGGYNYVSWYQQHPGKAPKLMIYDVSNRPSGVSNRFSGSKSGNTASLTISGLQAEDEADYYCSSYTSSSTFYVFGTGTKVTVLG
notes: human IgG1
B22: anti-mutCALR antibody clone 32 (antibody, human IgG1, lambda, V domains shown)
VH: B21 VH
VL: B21 VL with D52E, F99P
notes: human IgG1
B23: anti-mutCALR antibody clone 31 (antibody, human IgG1, lambda, V domains shown)
VH: B21 VH
VL: QSALTQPASVSGSPGQSVTISCTGTSSDVGGYNYVSWYQHHPGKAPKLMIYDVNKRPSGVPDRFSGSKSGNTASLTISGLQAEDEADYYCSSYIPSSTRWVFGGGTKLTVLG
notes: human IgG1
B24: anti-mutCALR antibody clone 35 (antibody, human IgG1, lambda, V domains shown)
VH: B21 VH with K63R
VL: B21 VL with D52E, F99P
notes: human IgG1
B25: anti-mutCALR antibody clone 36 (antibody, human IgG1, lambda, V domains shown)
VH: B21 VH
VL: B21 VL with A8R, I18V, T23A, S26G, Q40H, S54N, N55K, S61P, N62D
notes: human IgG1
B26: anti-mutCALR antibody clone 6 (antibody, human IgG1, lambda)
heavy: not shown
light: QSALTQPASVSGSPGQSITISCTGTSSDVGGYNYVSWYQQHPGKAPKLMIYEVSNRPSGVSNRFSGSNSGNTATLTINRVEAGDEADYYCQVWDSSNDLLIFGGGTKLTVLGQPKAAPSVTLFPPSSEELQANKATLVCLISDFYPGAVTVAWKADSSPVKAGVETTTPSKQSNNKYAASSYLSLTPEQWKSHRSYSCQVTHEGSTVEKTVAPTECS
notes: human IgG1
B27: anti-mutCALR antibody clone 11 (antibody, human IgG1, lambda, V domains shown)
VH: B1 VH with Q3R
VL: QSALTQPRSVSGSPGQSVTISCTGTSSDVGGYNYVSWYQQHPGKAPKLMIYDVSKRPSGVPDRFSGSNSGNTATLTINRVEAGDEADYYCQVWDSSNDLLIFGGGTKLTVLG
notes: human IgG1

Experiments:
[1] = biological target: T1, human Type 1 mutCALR on Ba/F3 cells …; assay: cell-based or functional assay
[2] = biological target: T2, human mutCALR on BaF3 cells stably …; assay: flow cytometry, BaF3 MPL-mutCALR cells
Description: On the day of the assay, cells were washed and resuspended in assay buffer. Approximately 200,000 cells/well were added to 96-well plates and stained with the indicated concentration of antibodies for 30 minutes on ice. Cells were then washed and stained with goat anti-human secondary conjugated to R-phycoerythrin (R-PE) (Jackson Immuno Research Laboratories) for 30 minutes on ice. The cells were then washed and analyzed by flow cytometry.

Binder | IC50, inhibition of pSTAT5 [1] [µg/mL] | MPL-mutCALR AUC [2] | EC50 [2] [mg/L]
B1 | 0.056 | 75300 | –
B2 | 0.193 | 60400 | 4.15
B3 | 0.024 | 65200 | 77.3
B4 | 0.031 | 72700 | –
B5 | 0.041 | 87600 | –
B6 | 0.125 | 41500 | 0.42
B7 | 0.036 | 91900 | –
B8 | 0.091 | 57700 | 0.04
B9 | 0.031 | 67800 | 29.3
B10 | 0.037 | 77900 | 3.19
B11 | 0.062 | 91600 | –
B12 | 0.028 | 63200 | 0.04
B13 | 0.061 | 61000 | 0.02
B14 | 0.03 | 65900 | –
B15 | 0.037 | 55200 | –
B16 | 0.035 | 124000 | –
B17 | 0.032 | 70100 | 0.7
B18 | 0.055 | 72100 | –
B19 | 0.018 | 92700 | –
B20 | 0.054 | 63800 | –
B21 | 0.039 | 80900 | 9.64
B22 | 0.47 | 52500 | 0.01
B23 | 26.8 | 45700 | 0.01
B24 | 0.444 | 62100 | 0.02
B25 | 0.092 | 73800 | 0.01
B26 | 0.03 | 58200 | 0.3
B27 | 0.052 | 69700 | 0.05
